Consider two substances from patent US20070264678A1.

In assay [1] the target is PTK labeled tracer F-ADE(pY)LIPQQS. In words: fluorescence polarization, direct binding curve: labeled antibody 10 nM to 9.8 pM against 1 nM tracer. Background: Fluorescence polarisation rises when a labelled molecule tumbles more slowly, as on binding a larger partner.
The target is the same in assay [2]. In words: binding curves as in Example 2 (FP), antibody at several labeling ratios.

In general, EC50 refers to the midpoint of the concentration-response curve. Consider “Tb-chelate labeled PY72 (anti-phosphotyrosine) IgG antibody”, for which the EC50 in assay [1] turned out to be 1 nM. On to “Anti p-Tyr antibody (anti-pY20) labeled with CS124-DTPA-Phe-NCS*Tb”, for which, in assay [2], the fold variation of affinity for the tracer upon labeling was below 2 fold.
